{
  "source": "paper PMC8794802",
  "binders": {"B1": {"name": "CDC8 (cdc8-FL, 61 nt) (ssRNA)", "RNA": "GUCAAUCACGAUUGUAGACGUUACUAAUAAGGGCAUUCAGGAAGUUGAAGCGCUUAUUUGG"}},
  "experiment_in_all_cases": "EMSA",
  "key": {"[1]": {"molecular_target": "T1, Pus7 D256A/H161A (Saccharomyces cerevisiae, UniProt Q08647 1-676, H161A;D256A)", "T1 sequence": "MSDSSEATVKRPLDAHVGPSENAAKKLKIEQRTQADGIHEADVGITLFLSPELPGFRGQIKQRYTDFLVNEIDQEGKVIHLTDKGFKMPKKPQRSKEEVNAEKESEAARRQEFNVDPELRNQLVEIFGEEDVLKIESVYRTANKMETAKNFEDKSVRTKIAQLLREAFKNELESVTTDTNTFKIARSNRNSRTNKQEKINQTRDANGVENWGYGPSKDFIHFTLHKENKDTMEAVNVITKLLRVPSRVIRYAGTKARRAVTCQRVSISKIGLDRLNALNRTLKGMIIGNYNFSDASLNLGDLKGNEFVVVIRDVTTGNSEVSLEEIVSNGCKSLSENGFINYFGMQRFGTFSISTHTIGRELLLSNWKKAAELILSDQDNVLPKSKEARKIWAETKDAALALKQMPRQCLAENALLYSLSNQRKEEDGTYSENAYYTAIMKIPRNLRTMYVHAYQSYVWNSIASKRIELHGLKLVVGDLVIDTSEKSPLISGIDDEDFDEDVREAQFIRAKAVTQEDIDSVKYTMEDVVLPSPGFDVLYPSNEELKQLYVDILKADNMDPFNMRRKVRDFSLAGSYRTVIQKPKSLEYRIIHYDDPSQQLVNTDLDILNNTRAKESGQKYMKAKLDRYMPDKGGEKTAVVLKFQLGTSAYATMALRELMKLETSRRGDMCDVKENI"}, "[2]": {"molecular_target": "T2, Pus7 D256A/E71A (Saccharomyces cerevisiae, UniProt Q08647 1-676, E71A;D256A)", "T2 sequence": "T1 sequence with E71A, A161H"}, "[3]": {"molecular_target": "T3, Pus7 D256A/F307A (Saccharomyces cerevisiae, UniProt Q08647 1-676, D256A;F307A)", "T3 sequence": "T1 sequence with A161H, F307A"}},
  "note": "Positions count from the first letter of the chain named.",
  "data": [
    {"binder": "B1", "values": [
      {"measurement": "Kd", "setting": "[1]", "value": "170 ± 40", "unit": "nM"},
      {"measurement": "Kd", "setting": "[2]", "value": "210 ± 50", "unit": "nM"},
      {"measurement": "Kd", "setting": "[3]", "value": "340 ± 170", "unit": "nM"}
    ]}
  ]
}
